The test has as its target cellular IGF-1 receptors (UniProt P24062). Put plainly: cell-based or functional assay.

The values that follow come from US20150166628A1.

Chain of UniProt P24062 (P24062 31-1370): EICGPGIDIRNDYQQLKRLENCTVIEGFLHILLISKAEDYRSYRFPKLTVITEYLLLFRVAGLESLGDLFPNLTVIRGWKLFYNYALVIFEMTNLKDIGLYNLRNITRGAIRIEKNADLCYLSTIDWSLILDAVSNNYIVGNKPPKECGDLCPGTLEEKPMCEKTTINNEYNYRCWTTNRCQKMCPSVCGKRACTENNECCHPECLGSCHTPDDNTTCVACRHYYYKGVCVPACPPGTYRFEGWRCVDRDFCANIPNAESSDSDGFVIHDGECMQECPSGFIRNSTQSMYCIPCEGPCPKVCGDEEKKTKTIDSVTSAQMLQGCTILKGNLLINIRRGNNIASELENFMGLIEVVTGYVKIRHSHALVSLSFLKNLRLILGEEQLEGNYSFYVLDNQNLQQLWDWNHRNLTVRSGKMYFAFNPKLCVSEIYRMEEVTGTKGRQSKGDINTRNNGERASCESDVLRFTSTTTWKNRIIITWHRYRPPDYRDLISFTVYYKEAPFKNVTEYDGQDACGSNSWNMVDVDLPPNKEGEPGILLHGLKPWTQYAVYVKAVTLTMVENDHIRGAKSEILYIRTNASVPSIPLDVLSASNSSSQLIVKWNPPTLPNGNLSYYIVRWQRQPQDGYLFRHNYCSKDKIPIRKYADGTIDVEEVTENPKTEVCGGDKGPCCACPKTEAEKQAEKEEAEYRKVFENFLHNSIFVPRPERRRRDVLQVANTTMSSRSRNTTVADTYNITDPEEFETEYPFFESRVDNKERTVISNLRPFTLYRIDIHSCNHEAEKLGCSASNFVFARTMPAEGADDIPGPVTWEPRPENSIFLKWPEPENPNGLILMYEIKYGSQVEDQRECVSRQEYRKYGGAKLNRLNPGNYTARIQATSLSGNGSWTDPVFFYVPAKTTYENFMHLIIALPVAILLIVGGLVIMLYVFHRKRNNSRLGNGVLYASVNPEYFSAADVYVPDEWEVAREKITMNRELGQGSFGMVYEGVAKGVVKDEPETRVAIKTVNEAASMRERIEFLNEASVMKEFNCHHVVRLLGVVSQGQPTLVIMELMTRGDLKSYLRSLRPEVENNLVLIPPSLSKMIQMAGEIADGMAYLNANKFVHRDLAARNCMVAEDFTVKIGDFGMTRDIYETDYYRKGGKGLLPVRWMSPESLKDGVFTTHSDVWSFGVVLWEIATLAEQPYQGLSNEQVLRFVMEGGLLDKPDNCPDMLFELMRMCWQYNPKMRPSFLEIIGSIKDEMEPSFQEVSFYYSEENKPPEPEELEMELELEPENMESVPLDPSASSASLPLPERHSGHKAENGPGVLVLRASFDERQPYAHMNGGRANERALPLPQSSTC

On to “HB-IGF-1 fusion protein (heparin-binding domain of human HB-EGF with a single cysteine-to-serine mutation fused to the amino-terminus of a mature IGF-1 protein) (from UniProt P05019 49-118)”, for which the sulfate incorporation into meniscal cartilage, normalized to saline injection, four days after injection (fold of saline) was found to be 1.82 and the sulfate incorporation into meniscal cartilage, normalized to saline injection, two days after injection (fold of saline) was determined as 2.1.
